Residue numbers refer to the chain shown, from its start. Names may count otherwise.

Here are results for 5 molecules from US20210113484A1 (NATIONAL UNIVERSITY OF SINGAPORE, published 2021).

The test system of data set [1] is h6NE-GFPuvTEV (h6NE-GFPuv fusion with a TEV protease site between the AfFtn subunit and GFPuv) [GFP: P42212].
In data set [2] the target is T1, AfFtn with truncated C-terminus and E65K, E128K, E131K, D138A, net positive interior [AfFtnΔC(+)] (Archaeoglobus fulgidus).
T1 construct: 24 copies in the empty shell; about 23 copies where it surrounds one fusion subunit; also called tES(+)
T1 chain: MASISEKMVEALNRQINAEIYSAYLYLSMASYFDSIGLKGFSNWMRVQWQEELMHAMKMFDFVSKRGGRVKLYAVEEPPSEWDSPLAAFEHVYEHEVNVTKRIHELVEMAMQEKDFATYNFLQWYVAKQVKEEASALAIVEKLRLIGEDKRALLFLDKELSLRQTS
The experiment in a line: gel densitometry of purified protein fractions.

Data set [3] deals with T2, native rLuc (un-fused Renilla luciferase) (Renilla reniformis, UniProt P27652 1-311).
T2 sequence (looked up): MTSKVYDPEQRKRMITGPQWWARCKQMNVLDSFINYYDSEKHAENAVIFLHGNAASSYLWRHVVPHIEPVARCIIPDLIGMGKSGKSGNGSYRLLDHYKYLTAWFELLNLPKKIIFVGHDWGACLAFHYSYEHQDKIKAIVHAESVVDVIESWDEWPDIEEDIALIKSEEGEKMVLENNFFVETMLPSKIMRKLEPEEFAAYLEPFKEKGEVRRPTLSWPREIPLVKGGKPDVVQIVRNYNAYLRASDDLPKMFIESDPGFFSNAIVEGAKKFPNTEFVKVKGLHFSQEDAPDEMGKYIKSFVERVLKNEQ
The experiment in a line: cell-free encapsulation by pH shift 5.8 to 8; rLuc luminescence. On the procedure: The TMB substrate was added for color development and the reaction stopped using 2M H₂SO₄ after 5 mins. Absorbance was recorded at 450 nm. All luciferase reactions took place at ambient temperature (24-27° C.) in a 96-well plate with white interior and were performed at least in triplicates. Following chromatographic purification, equimolar concentrations (500 nM) of purified h6NE-luciferase(+), h6NEluciferase(−), and h6NE-luciferase(+/−) were evaluated for luciferase activity using D-luciferin potassium salt as a substrate. The reaction was initiated by injecting 50μl buffer containing D-luciferin potassium salt (final concentration 200 μM), 50 mM Tris-Cl pH 7.5, 10 mM MgCl₂, 2 mM EDTA, 100 μM ATP, 0.1% BSA, to a 50μl protein sample. Purified tES(+)F116H/tES-rLuc, tES-rLuc, and rLuc were evaluated using Renilla luciferase kit (Promega) with some modifications in the manufacturer's instructions. […] The signal was integrated for 1 min with a 2 s delay and luminescence was measured in Relative Light Units (RLU). […] The steady-state initial velocities, VO, (RLU/sec) for h6NE-luciferase(+/−) and recombinant luciferase were determined by initiating the reaction with different concentration of D-luciferin potassium salt. […] All readings were recorded on a Perkin Elmer Plate reader. […]

The target in data set [4] is T3, native HRPC (un-fused horseradish peroxidase isoenzyme C) (horseradish, UniProt P00433 31-338).
T3 sequence (looked up): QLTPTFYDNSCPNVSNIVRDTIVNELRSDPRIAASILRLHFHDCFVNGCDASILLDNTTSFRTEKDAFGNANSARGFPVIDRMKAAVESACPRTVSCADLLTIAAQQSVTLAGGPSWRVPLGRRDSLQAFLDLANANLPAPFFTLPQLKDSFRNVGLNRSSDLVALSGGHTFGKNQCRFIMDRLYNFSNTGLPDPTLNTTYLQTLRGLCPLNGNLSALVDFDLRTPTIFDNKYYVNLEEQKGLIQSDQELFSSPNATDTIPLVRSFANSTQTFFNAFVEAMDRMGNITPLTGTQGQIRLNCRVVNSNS
The experiment in a line: cell-free encapsulation by pH shift 5.8 to 8; HRPC activity and thermal shift. On the procedure: (§1) With increasing amount of HRPC, denaturation temperature of tES(+)F116H increases. […] Negligible change in the denaturation temperature for 60:10 tES(−)F116H:HRPC indicates unsuccessful encapsulation of HRPC within tES(−)F116H as compared to tES(+)F116H.
(§2) GFP, and HRPC and rLuc activities were determined through fluorescence, colorimetric and luminescence assays, respectively, both from cell lysate and purified proteins. For GFP, fluorescence of tES(+)F116H/tES-GFPuv, tES-GFPuv, and GFPuv was read at 508 nm in a 96-well black polystyrene plate (Fisher Scientific) with excitation wavelength fixed at 395 nm was performed or fluorescence read at 508 nm in a 96-well black polystyrene plate (Fisher Scientific) using supernatant from 10-mg bacterial pellet (induced at 0.8 OD and cultured for 24h). The activity of tES(+)F116H/tES-HRPC, tES-HRPC, and HRPC was assayed using TMB substrate in a 96-well crystal-clear polystyrene plate (Greiner Bio-One). Briefly, fractions were incubated in assay buffer containing 25 mM Tris-HCl pH-8.0, 5 mM CaCl₂, 2.5 μM hemin for 5 mins. […] Absorbance was recorded at 450 nm. […] Following chromatographic purification, equimolar concentrations (500 nM) of purified h6NE-luciferase(+), h6NEluciferase(−), and h6NE-luciferase(+/−) were evaluated for luciferase activity using D-luciferin potassium salt as a substrate.

The target in data set [5] is T4, native GFPuv (un-fused) (UniProt P42212 1-238 = GFP).
T4 construct: Any tag on the un-fused protein is not described
Nature of the data set: cell-free encapsulation by pH shift 5.8 to 8; GFPuv fluorescence and thermal shift. The protocol:
(§3) FIGS. 18A-18D show effect of different molar ratios and charge of tES subunits on native GFPuv encapsulation in vitro. […] With increasing amount of GFPuv, denaturation temperature of tES(+)F116H increases. […] Negligible change in the denaturation temperature for 60:10 tES(−)F116H:GFPuv indicates unsuccessful encapsulation of GFPuv within tES(−)F116H as compared to tES(+)F116H. In 18A+ve control is tES:tES-GFPuv (0.5 μM); −ve control is GFPuv. In 18B+ve controls are tES(+)F116H:tES-GFPuv and tES(−)F116H:tES-GFPuv.
as §2, with “24h).” for “24h). The activity of tES(+)F116H/tES-HRPC, tES-HRPC, and HRPC was assayed using TMB substrate in a 96-well crystal-clear polystyrene plate (Greiner Bio-One). Briefly, fractions were incubated in assay buffer containing 25 mM Tris-HCl pH-8.0, 5 mM CaCl₂, 2.5 μM hemin for 5 mins.”

The target in data set [6] is T4, native GFPuv (un-fused). Nature of the data set: cell-free encapsulation by pH shift 5.8 to 8; thermal shift assay. On the procedure:
as §3
Inclusion body purification protocol is same as herein described. […] Fractions around the eluted peak were collected and their activity analyzed to identify fractions containing the POI.

The target in data set [7] is T3, native HRPC (un-fused horseradish …). Nature of the data set: cell-free encapsulation by pH shift 5.8 to 8; SEC fractions' HRPC activity and thermal shift assay. The protocol:
as §1, §2

TEVprotease (Sigma): the “TEV protease cleavage, Western blot” value in data set [1] is reported as “the protease cleaved h6NE-GFPuvTEV”.

B1: tES-rLuc (His-tagged AfFtn subunit with truncated C-terminus fused to Renilla luciferase) (other)
chain: T1 chain with K65E, K128E, K131E, A138D
notes: also called tES-rLuc fusion subunit; not shown: N-terminal His-tag from pBAD/HisB; Renilla luciferase (rLuc), a 36 kDa protein from sea pansy, Renilla reniformis
In the case of B1, in data set [2], the “ratio of fusion subunit to encapsulating tES subunits” value was 20 tES subunits per fusion subunit.

B2: tES(+)F116H (other)
chain: T1 chain with F116H
notes: also called F116HAfFtnΔC(+); AfFtn net positive variant subunit with truncation of unstructured C-terminus and F116H mutation
Turning to B2, the binding result (in data set [3]; in data set [4]; with native GFPuv (un-fused) [5]) was “binds” each time.

B3: tES(-)F116H (other)
chain: T1 chain with K65E, F116H, K128E, K131E, A138D
notes: also called AfFtn subunit with truncation of unstructured C-terminus and F116H mutation
B3: the binding result was “no binding (tested: 60:10 molar ratio)” with native GFPuv (un-fused) [6]; “no binding (tested: molar ratios of 60:8 and 60:10)” in data set [7].

B4: h6NE-HRPC (His-tagged AfFtn subunit with truncated C-terminus fused to horseradish peroxidase isoenzyme C, C-terminal c-Myc epitope) (other)
chain: MASISEKMVEALNRQINAEIYSAYLYLSMASYFDSIGLKGFSNWMRVQWQEELMHAMKMFDFVSERGGRVKLYAVEEPPSEWDSPLAAFEHVYEHEVNVTKRIHELVEMAMQEKDFATYNFLQWYVAEQVEEEASALDIVEKLRLIGEDKRALLFLDKELSLRQTSQLTPTFYDNSCPNVSNIVRDTIVNELRSDPRIAASILRLHFHDCFVNGCDASILLDNTTSFRTEKDAFGNANSARGFPVIDRMKAAVESACPRTVSCADLLTIAAQQSVTLAGGPSWRVPLGRRDSLQAFLDLANANLPAPFFTLPQLKDSFRNVGLNRSSDLVALSGGHTFGKNQCRFIMDRLYNFSNTGLPDPTLNTTYLQTLRGLCPLNGNLSALVDFDLRTPTIFDNKYYVNLEEQKGLIQSDQELFSSPNATDTIPLVRSFANSTQTFFNAFVEAMDRMGNITPLTGTQGQIRLNCRVVNSNS
notes: also called tES-HRPC; tES-HRP; not shown: N-terminal His-tag from pBAD/HisB
On to B4, for which the “ratio of fusion subunit to encapsulating tES subunits” value in data set [2] was 19 tES subunits per fusion subunit.
